Data: article PMC6375917 (2019)

B1: His-tagged but otherwise wild type Tim50 [yeast] / Tim23 [yeast (endogenous in yeast mitochondria)] (parent complex)
chain 1: QKETKDDKPKSILTDDMLFKAGVDVDEKGQGKNEETSGEGGEDKNEPSSKSEKSRRKRQTSTDIKREKYANWFYIFSLSALTGTAIYMARDWEPQESEELKKDIDNGYTLSLMYKRFKARFNSMFTYFQEPPFPDLLPPPPPPPYQRPLTLVITLEDFLVHSEWSQKHGWRTAKRPGADYFLGYLSQYYEIVLFSSNYMMYSDKIAEKLDPIHAFVSYNLFKEHCVYKDGVHIKDLSKLNRDLSKVIIIDTDPNSYKLQPENAIPMEPWNGEADDKLVRLIPFLEYLATQQTKDVRPILNSFEDKKNLAEEFDHRVKKLKDKFYGDHKSGGNWAMTALGLGNSLGGSTKFPLDLIHEEGQKNYLMFMKMIEEEKEKIRIQQEQMGGQTFTLKDYVEGNLPSPEEQMKIQLEKQKEVDALFEEEKKKKKIAESK
chain 2: MSWLFGDKTPTDDANAAVGGQDTTKPKELSLKQSLGFEPNINNIISGPGGMHVDTARLHPLAGLDKGVEYLDLEEEQLSSLEGSQGLIPSRGWTDDLCYGTGAVYLLGLGIGGFSGMMQGLQNIPPNSPGKLQLNTVLNHITKRGPFLGNNAGILALSYNIINSTIDALRGKHDTAGSIGAGALTGALFKSSKGLKPMGYSSAMVAAACAVWCSVKKRLLEK

Variants of: B1
Assay: pull-down (Ni-NTA agarose beads), immunoblot quantification; T, 10% of total material. B, 100% of bound material.; parent: 100; read off a plot

Row | percent of parent [%] | Variant
1 | ~115 | chain 1 QKETKDDKPKSILTDDMLFKAGVDVDEKGQGKNEETSGEGGEDKNEPSSKSEKSRRKRQTSTDIKREKYANWFYIFSLSALTGTAIYMARDWEPQESEELKKDIDNGYTLSLMYKRFKARFNSMFTYFQEPPFPDLLPPPPPPPYQRPLTLVITLEDFLVHSEWSQKHGWRTAKRPGADYFLGYLSQYYEIVLFSSNYMMYSDKIAEKLDPIHAFVSYNLFKEHCVYKDGVHIKDLSKLNRDLSKVIIIDTDPNSYKLQPENAIPMEPWNGEADDKLVRLIPFLEYLATQQTKDVSPILNSFEDKKNLAEEFDHRVKKLKDKFYGDHKSGGNWAMTALGLGNSLGGSTKFPLDLIHEEGQKNYLMFMKMIEEEKEKIRIQQEQMGGQTFTLKDYVEGNLPSPEEQMKIQLEKQKEVDALFEEEKKKKKIAESK [chain 1 R296S]
2 | ~12 | chain 1 QKETKDDKPKSILTDDMLFKAGVDVDEKGQGKNEETSGEGGEDKNEPSSKSEKSRRKRQTSTDIKREKYANWFYIFSLSALTGTAIYMARDWEPQESEELKKDIDNGYTLSLMYKRFKARFNSMFTYFQEPPFPDLLPPPPPPPYQRPLTLVITLEDFLVHSEWSQKHGWRTAKRPGADYFLGYLSQYYEIVLFSSNYMMYSDKIAEKLDPIHAFVSYNLFKEHCVYKDGVHIKVLSKLNRDLSKVIIIDTDPNSYKLQPENAIPMEPWNGEADDKLVRLIPFLEYLATQQTKDVSPILNSFEDKKNLAEEFDHRVKKLKDKFYGDHKSGGNWAMTALGLGNSLGGSTKFPLDLIHEEGQKNYLMFMKMIEEEKEKIRIQQEQMGGQTFTLKDYVEGNLPSPEEQMKIQLEKQKEVDALFEEEKKKKKIAESK [chain 1 D235V, chain 1 R296S]
3 | ~37 | chain 1 QKETKDDKPKSILTDDMLFKAGVDVDEKGQGKNEETSGEGGEDKNEPSSKSEKSRRKRQTSTDIKREKYANWFYIFSLSALTGTAIYMARDWEPQESEELKKDIDNGYTLSLMYKRFKARFNSMFTYFQEPPFPDLLPPPPPPPYQRPLTLVITLEDFLVHSEWSQKHGWRTAKRPGADYFLGYLSQYYEIVLFSSNYMMYSDKIAEKLDPIHAFVSYNLFKEHCVYKDGVHIKVLSKLNRDLSKVIIIDTDPNSYKLQPENAIPMEPWNGEADDKLVRLIPFLEYLATQQTKDVRPILNSFEDKKNLAEEFDHRVKKLKDKFYGDHKSGGNWAMTALGLGNSLGGSTKFPLDLIHEEGQKNYLMFMKMIEEEKEKIRIQQEQMGGQTFTLKDYVEGNLPSPEEQMKIQLEKQKEVDALFEEEKKKKKIAESK [chain 1 D235V]
